# Test results reported in paper PMC6648666.
# T1: HqRRM1,2 BTFA-labeled (human, UniProt P31943 10-194)
# T1 sequence: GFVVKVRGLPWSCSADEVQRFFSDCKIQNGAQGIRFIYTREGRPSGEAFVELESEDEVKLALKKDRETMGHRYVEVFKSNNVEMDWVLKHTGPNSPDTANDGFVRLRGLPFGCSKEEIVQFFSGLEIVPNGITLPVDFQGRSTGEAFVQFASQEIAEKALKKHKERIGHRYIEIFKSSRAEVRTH
# T2: HqRRM2 (hnRNP H qRRM2) (human, UniProt P31943 94-194)
# T2 sequence: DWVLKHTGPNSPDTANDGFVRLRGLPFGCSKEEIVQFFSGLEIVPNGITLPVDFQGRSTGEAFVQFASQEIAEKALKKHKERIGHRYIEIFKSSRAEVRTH
# T3: HqRRM1 (hnRNP H qRRM1) (human, UniProt P31943 10-111)
# T3 sequence: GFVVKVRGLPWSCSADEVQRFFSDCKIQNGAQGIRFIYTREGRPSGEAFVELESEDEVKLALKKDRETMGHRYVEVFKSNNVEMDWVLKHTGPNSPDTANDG
# T4: HqRRM1,2 (hnRNP H tandem qRRMs) (human, UniProt P31943 10-194)
# T4 sequence: T1 sequence
# B1: AGGGA*U spin-labeled (ssRNA)
# RNA: AGGGAU
# modifications: phosphorothioate between A5 and U6
# B2: AGGGU (ssRNA)
# RNA: AGGGU
# Experiments:
# HqRRM1,2 BTFA-labeled = target: T1, HqRRM1,2 BTFA-labeled; assay: 19F NMR PRE
# HqRRM2 (hnRNP H qRRM2) = target: T2, HqRRM2 (hnRNP H qRRM2); assay: ITC
# HqRRM1 (hnRNP H qRRM1) = target: T3, HqRRM1 (hnRNP H qRRM1); assay: ITC
# [1] = target: T4, HqRRM1,2 (hnRNP H tandem qRRMs); assay: ITC
Binder,"binding result (HqRRM1,2 BTFA-labeled)",Kd (HqRRM2 (hnRNP H qRRM2)) [µM],Kd (HqRRM1 (hnRNP H qRRM1)) [µM],Kd [1] [µM]
B1,binds,,,
B2,,2.2 ± 0.8,3.2 ± 0.1,0.8 ± 0.1
